Assays:
Human-IGF-I = biological target: T1, Human-IGF-I (human, UniProt P05019 49-118); test: competitive radioligand binding in solution (125I-IGF-I vs unlabeled IGF-I), immunoprecipitation with anti-IGFBP-2, one-site fit
T1 construct: also called IGF-1
Text: (§1) Table 4 tabulates data showing the effect of mutagenesis on the affinity of IGFBP-2 for the IGFs. The HBD, ₁₇₉PKKLRP₁₈₄, was mutated to ₁₇₉PNNLAP₁₈₄ and the ₂₆₅RGD₂₆₇ domain was mutated to ₂₆₅RGE₂₆₇. Native and mutant IGFBP-2 were purified by IGF-I affinity chromatography and quantified by an IGFBP-2 ELISA or radioimmuno assay (RIA) as described in the Examples. IGF binding affinities of the modified IGFBP-2 mutants were similar to those of native IGFBP-2.
(§2) The impact of these exemplary mutations in IGFBP-2 were tested to see if they affected IGF binding affinity. Native, HBD and RGD-IGFBP-2 (all 2.5 ng) were incubated with either ¹²⁵I-IGF-I or -II (15,000 cpm) in the presence of increasing concentrations of unlabeled IGF-I or -II (0.0025-0.15 nM). Binding was for 2 h at room temperature in 100 μl binding buffer [BB; 50 mM sodium phosphate pH 7.4, 0.1 M NaCl, 0.05% (w/v) NaN3, 0.2% fatty acid free BSA (Sigma, Steinheim, Germany), 0.1% (v/v) Triton X-100]. […] Bound radioactivity in precipitates was quantified in a γ-counter. Each point was measured in quadruplicate. […]

IGF-II = biological target: T2, IGF-II (UniProt P01344 25-91); test: competitive radioligand binding in solution (125I-IGF-II vs unlabeled IGF-II), immunoprecipitation with anti-IGFBP-2, one-site fit
T2 construct: also called unlabeled IGF-II
Text: as §1, §2

T2 sequence (P01344 25-91 limits assumed): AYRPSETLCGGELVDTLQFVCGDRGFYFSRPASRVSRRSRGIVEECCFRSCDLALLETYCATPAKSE
T1 sequence (P05019 49-118 limits assumed): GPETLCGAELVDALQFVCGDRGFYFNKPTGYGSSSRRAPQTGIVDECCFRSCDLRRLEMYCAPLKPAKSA

Kd (Human-IGF-I): 1.45 nM | Kd (IGF-II): 0.52 nM
B1: HBD-IGFBP-2 mutant (179PKKLRP184 mutated to 179PNNLAP184) (other)
chain: EVLFRCPPCTPERLAACGPPPVAPPAAVAAVAGGARMPCAELVREPGCGCCSVCARLEGEACGVYTPRCGQGLRCYPHPGSELPLQALVMGEGTCEKRRDAEYGASPEQVADNGDDHSEGGLVENHVDSTMNMLGGGGSAGRKPLKSGMKELAVFREKVTEQHRQMGKGGKHHLGLEEPNNLAPPPARTPCQQELDQVLERISTMRLPDERGPLEHLYSLHIPNCDKHGLYNLKQCKMSLNGQRGECWCVNPNTGKLIQGAPTIRGDPECHLFYNEQQEARGVHTQRMQ
notes: Positions are as printed; also called HBD modified IGFBP-2; PCS3
